Laboratory results from article PMC12033333 (Nature Communications, 2025).

B2: GST-fused APB (PIF3 1-113 a.a.) (domain or fragment)
chain: MPLFELFRLTKAKLESAQDRNPSPPVDEVVELVWENGQISTQSQSSRSRNIPPPQANSSRAREIGNGSKTTMVDEIPMSVPSLMTGLSQDDDFVPWLNHHPSLDGYCSDFLRD
B4: SBP-fused phyB^PSM (domain or fragment)
chain: MVSGVGGSGGGRGGGRGGEEEPSSSHTPNNRRGGEQAQSSGTKSLRPRSNTESMSKAIQQYTVDARLHAVFEQSGESGKSFDYSQSLKTTTYGSSVPEQQITAYLSRIQRGGYIQPFGCMIAVDESSFRIIGYSENAREMLGIMPQSVPTLEKPEILAMGTDVRSLFTSSSSILLERAFVAREITLLNPVWIHSKNTGKPFYAILHRIDVGVVIDLEPARTEDPALSIAGAVQSQKLAVRAISQLQALPGGDIKLLCDTVVESVRDLTGYDRVMVYKFHEDEHGEVVAESKRDDLEPYIGLHYPATDIPQASRFLFKQNRVRMIVDCNATPVLVVQDDRLTQSMCLVGSTLRAPHGCHSQYMANMGSIASLAMAVIINGNEDDGSNVASGRSSMRLWGLVVCHHTSSRCIPFPLRYACEFLMQAFGLQLNMELQLALQMSEKRVLRTQTLLCDMLLRDSPAGIVTQSPSIMDLVKCDGAAFLYHGKYYPLGVAPSEVQIKDVVEWLLANHADSTGLSTDSLGDAGYPGAAALGDAVCGMAVAYITKRDFLFWFRSHTAKEIKWGGAKHHPEDKDDGQRMHPRSSFQAFLEVVKSRSQPWETAEMDAIHSLQLILRDSFKESEAAMNSKVVDGVVQPCRDMAGEQGIDELGAV
modifications: chromophore-bound (phycocyanobilin, PCB)

What was measured:
Experiment in all cases: pull-down
[1] = target: B4
[2] = target: T1, SBP-fused full-length phyA (Arabidopsis thaliana, UniProt P14712 1-1122, chromophore-bound (phycocyanobilin, PCB))
T1 sequence: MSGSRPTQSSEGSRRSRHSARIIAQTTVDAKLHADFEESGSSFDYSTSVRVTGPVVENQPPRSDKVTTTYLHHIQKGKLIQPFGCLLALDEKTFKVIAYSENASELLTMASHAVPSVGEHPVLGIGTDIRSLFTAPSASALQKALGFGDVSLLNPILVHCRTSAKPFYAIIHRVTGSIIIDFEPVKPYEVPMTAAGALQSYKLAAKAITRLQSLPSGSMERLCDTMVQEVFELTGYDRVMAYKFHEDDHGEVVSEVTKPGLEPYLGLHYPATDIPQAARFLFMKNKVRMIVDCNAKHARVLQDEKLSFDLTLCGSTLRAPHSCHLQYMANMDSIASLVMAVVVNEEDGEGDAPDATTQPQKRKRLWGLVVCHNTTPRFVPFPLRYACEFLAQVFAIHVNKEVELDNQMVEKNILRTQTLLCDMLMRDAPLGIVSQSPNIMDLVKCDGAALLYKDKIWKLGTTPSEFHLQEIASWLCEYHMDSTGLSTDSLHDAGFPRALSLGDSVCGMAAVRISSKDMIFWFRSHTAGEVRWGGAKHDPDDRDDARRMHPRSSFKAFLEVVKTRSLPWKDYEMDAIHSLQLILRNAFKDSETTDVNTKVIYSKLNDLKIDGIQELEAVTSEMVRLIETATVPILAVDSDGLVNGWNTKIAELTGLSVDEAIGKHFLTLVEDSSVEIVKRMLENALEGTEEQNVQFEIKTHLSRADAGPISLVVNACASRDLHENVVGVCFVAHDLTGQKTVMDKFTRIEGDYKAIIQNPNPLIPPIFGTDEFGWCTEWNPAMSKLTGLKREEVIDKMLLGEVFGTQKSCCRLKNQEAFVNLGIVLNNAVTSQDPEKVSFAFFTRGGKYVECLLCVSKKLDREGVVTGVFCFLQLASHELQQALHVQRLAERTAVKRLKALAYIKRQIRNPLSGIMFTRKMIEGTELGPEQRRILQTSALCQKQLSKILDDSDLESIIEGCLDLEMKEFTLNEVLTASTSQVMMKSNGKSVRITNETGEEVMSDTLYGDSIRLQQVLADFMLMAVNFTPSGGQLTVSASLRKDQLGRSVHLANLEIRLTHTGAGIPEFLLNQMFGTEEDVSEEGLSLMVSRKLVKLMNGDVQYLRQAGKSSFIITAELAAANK

[3] = target: T2, MBP-fused phyB^OPM (Arabidopsis thaliana, UniProt P14713 642-1172)
T2 sequence: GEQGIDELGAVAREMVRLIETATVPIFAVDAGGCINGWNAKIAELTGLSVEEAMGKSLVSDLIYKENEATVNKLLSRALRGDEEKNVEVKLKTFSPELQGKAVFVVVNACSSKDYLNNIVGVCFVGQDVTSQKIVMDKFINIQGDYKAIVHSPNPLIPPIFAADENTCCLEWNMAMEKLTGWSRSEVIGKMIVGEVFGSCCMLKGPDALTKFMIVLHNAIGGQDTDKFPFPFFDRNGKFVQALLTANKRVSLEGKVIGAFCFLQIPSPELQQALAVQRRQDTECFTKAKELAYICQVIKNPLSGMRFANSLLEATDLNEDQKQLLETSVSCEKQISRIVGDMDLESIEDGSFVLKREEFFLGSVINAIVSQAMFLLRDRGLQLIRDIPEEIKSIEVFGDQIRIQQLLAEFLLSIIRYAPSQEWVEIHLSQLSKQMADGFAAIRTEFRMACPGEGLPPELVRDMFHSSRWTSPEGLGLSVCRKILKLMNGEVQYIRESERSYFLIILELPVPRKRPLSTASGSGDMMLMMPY

[4] = target: T3, MBP-fused phyA^OPM (Arabidopsis thaliana, UniProt P14712 608-1122)
T3 sequence: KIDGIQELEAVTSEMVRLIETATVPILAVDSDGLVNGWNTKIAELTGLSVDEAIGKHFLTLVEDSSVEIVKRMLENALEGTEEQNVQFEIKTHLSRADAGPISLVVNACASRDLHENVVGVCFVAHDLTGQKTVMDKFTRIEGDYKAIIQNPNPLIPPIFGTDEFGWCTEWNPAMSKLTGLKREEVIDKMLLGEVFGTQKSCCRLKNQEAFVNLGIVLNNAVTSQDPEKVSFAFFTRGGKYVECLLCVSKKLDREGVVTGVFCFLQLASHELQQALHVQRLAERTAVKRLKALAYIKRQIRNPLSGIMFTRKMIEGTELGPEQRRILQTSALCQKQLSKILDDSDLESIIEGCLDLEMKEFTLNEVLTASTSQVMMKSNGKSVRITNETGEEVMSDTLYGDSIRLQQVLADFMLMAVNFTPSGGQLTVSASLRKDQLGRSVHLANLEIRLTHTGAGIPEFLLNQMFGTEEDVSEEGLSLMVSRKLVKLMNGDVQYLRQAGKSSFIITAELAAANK

[5] = target: B2

B1: GST-PIF3 (natural protein)
chain: MPLFELFRLTKAKLESAQDRNPSPPVDEVVELVWENGQISTQSQSSRSRNIPPPQANSSRAREIGNGSKTTMVDEIPMSVPSLMTGLSQDDDFVPWLNHHPSLDGYCSDFLRDVSSPVTVNEQESDMAVNQTAFPLFQRRKDGNESAPAASSSQYNGFQSHSLYGSDRARDLPSQQTNPDRFTQTQEPLITSNKPSLVNFSHFLRPATFAKTTNNNLHDTKEKSPQSPPNVFQTRVLGAKDSEDKVLNESVASATPKDNQKACLISEDSCRKDQESEKAVVCSSVGSGNSLDGPSESPSLSLKRKHSNIQDIDCHSEDVEEESGDGRKEAGPSRTGLGSKRSRSAEVHNLSERRRRDRINEKMRALQELIPNCNKVDKASMLDEAIEYLKSLQLQVQIMSMASGYYLPPAVMFPPGMGHYPAAAAAMAMGMGMPYAMGLPDLSRGGSSVNHGPQFQVSGMQQQPVAMGIPRVSGGGIFAGSSTIGNGSTRDLSGSKDQTTTNNNSNLKPIKRKQGSSDQFCGSS
B1: binds [1]; binds [2].

B2: binds [1].

B3: GST-tagged PIF1 (natural protein)
chain: MHHFVPDFDTDDDYVNNHNSSLNHLPRKSITTMGEDDDLMELLWQNGQVVVQNQRLHTKKPSSSPPKLLPSMDPQQQPSSDQNLFIQEDEMTSWLHYPLRDDDFCSDLLFSAAPTATATATVSQVTAARPPVSSTNESRPPVRNFMNFSRLRGDFNNGRGGESGPLLSKAVVRESTQVSPSATPSAAASESGLTRRTDGTDSSAVAGGGAYNRKGKAVAMTAPAIEITGTSSSVVSKSEIEPEKTNVDDRKRKEREATTTDETESRSEETKQARVSTTSTKRSRAAEVHNLSERKRRDRINERMKALQELIPRCNKSDKASMLDEAIEYMKSLQLQIQMMSMGCGMMPMMYPGMQQYMPHMAMGMGMNQPIPPPSFMPFPNMLAAQRPLPTQTHMAGSGPQYPVHASDPSRVFVPNQQYDPTSGQPQYPAGYTDPYQQFRGLHPTQPPQFQNQATSYPSSSRVSSSKESEDHGNHTTG
B3: binds [3]; binds [4].

For B4, the “fold strength against the phyB^OPM-APA interaction (m39 on m40)” value [5] was ~2 fold.
